{"source": "patent US20250066499A1", "about": "(SUNSHINE GUOJIAN PHARMACEUTICAL SHANGHAI, published 2025)", "binders": {"B1": {"name": "48A11-HuV33 (antibody, human IgG4, V domains shown)", "VH": "QVQLVQSGAEVKKPGASVKVSCKASGYTFTSYWMHWVRQAPGQGLEWIGEINPSIGRTNYNEKFKSRVTLTRDTSTSTAYMELSSLRSEDTAVYYCARRVYGTMDYWGQGTLVTVSS", "VL": "DIQMTQSPSSLSASVGDRVTITCKASQDINSYLSWFQQKPGKSPKLLIYRANIWVDGVPSRFSGSGSGQDYTFTISSLQPEDIATYYCLQYDELYTFGQGTKVEIK", "notes": "Humanized"}, "B2": {"name": "56B10-HuV31 (antibody, human IgG4, V domains shown)", "VH": "QVQLQQSGAEVKKPGASVKVSCKASGYTFTRYYIYWVRQRPGQGLEWIGWIYPGNFNTKYNEKFKGRATLTADTSASTAYMELSSLTSEDTAVYYCARDVYDYAGFAYWGQGTLVTVSS", "VL": "DIQLTQSPSFLSASVGDRVTITCKASQGVATAVAWYQQKPGQSPKLLIYWASTRHTGVPDRFSGSGSGTEFTLTISSLQPEDFATYYCQQYSSYPWTFGQGTKVEIK", "notes": "Humanized"}}, "key": {"human CD73-His protein": {"biological_target": "T1, human CD73-His protein (human, UniProt P21589 27-549)", "T1 construct": "Expressed in HEK-293F with a signal peptide that is not specified; In the ELISAs it was biotinylated with EZ-Link NHS-Biotin (CD73-biotin) and captured on streptavidin; in SPR and the enzyme assay it was used as CD73-His; also called CD73-his antigen; CD73-biotin", "T1 sequence": "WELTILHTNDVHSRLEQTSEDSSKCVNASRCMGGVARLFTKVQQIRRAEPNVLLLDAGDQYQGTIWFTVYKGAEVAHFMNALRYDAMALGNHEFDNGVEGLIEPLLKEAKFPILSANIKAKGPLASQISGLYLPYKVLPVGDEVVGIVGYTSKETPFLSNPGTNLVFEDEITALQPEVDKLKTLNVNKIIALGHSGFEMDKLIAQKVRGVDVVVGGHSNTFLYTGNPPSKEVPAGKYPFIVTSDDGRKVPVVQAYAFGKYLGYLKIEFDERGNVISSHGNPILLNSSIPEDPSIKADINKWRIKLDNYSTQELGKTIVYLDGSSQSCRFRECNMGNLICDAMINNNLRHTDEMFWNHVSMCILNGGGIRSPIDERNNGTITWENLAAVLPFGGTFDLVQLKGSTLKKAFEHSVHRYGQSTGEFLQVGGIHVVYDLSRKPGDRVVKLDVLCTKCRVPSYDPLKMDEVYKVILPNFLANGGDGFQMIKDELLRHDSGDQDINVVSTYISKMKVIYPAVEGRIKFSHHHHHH", "experiment": "ELISA, biotinylated CD73-His on streptavidin plate", "description": "The ELISA plates were coated with SA protein diluted to 1.5 μg/mL in coating buffer (50 mM carbonate coating buffer, pH 9.6) and incubated overnight at 4° C. The supernatant was discarded, and the plates were washed three times with PBST. Then, 5% skimmed milk powder prepared with PBS was added for blocking and the plates were incubated for 2 h at 37° C. After washing the plates once with PBST, CD73-biotin protein (prepared by biotinylating CD73-His protein according to the EZ-Link NHS-Biotin Reagent instructions) was diluted to 0.5 μg/mL and added at 100 μL/well for incubation at room temperature for 1 h. The plates were washed three times with PBST, and the prepared murine-derived monoclonal antibodies against human CD73 were serially diluted with 1% BSA buffer prepared with PBST and added to the ELISA plates at 100 μl/well. The plates were incubated at 37° C. for 1 h. After washing the plates three times with PBST, HRP-labeled goat anti-mouse IgG secondary antibody was added and the plates were incubated for 30 min at 37° C. After washing the plates three times with PBST, the residual droplets were patted dry on absorbent paper as much as possible. Then, 100 μl of TMB color developing solution was added to each well, and the plates were incubated in the dark at room temperature for 5 min for color development. Subsequently, 50 μl of 2M H₂SO₄ stop solution was added to each well to terminate the substrate reaction. The OD values were read at 450 nm using a multimode microplate reader to analyze the binding ability of the tested antibodies to the target antigen human CD73-His.\nThe binding affinity of various humanized antibodies to human CD73-his protein was measured with reference to Example 3."}, "[1]": {"biological_target": "T2, CD73 protein on the surface of tumor cells (human, UniProt P21589 27-549)", "T2 sequence (looked up)": "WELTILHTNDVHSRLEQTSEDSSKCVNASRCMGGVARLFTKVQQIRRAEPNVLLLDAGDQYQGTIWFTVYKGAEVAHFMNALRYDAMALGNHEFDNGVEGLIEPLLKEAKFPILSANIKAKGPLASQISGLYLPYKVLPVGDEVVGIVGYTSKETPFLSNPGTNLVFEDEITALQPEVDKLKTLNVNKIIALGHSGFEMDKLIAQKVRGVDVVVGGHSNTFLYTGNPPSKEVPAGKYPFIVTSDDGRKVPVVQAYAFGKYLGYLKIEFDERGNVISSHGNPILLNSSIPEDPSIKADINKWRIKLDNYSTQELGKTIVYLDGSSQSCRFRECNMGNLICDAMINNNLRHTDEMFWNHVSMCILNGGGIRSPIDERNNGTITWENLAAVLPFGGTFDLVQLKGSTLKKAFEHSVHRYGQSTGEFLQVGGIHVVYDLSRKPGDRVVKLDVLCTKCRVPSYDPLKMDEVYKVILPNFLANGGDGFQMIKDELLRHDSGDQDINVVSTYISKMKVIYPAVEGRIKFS", "experiment": "cell-based or functional assay"}, "mouse CD73 protein": {"biological_target": "T3, mouse CD73 protein (mouse, UniProt Q61503 29-549, limits assumed)", "T3 construct": "Bought protein; also called CD73-mouse", "T3 sequence (looked up)": "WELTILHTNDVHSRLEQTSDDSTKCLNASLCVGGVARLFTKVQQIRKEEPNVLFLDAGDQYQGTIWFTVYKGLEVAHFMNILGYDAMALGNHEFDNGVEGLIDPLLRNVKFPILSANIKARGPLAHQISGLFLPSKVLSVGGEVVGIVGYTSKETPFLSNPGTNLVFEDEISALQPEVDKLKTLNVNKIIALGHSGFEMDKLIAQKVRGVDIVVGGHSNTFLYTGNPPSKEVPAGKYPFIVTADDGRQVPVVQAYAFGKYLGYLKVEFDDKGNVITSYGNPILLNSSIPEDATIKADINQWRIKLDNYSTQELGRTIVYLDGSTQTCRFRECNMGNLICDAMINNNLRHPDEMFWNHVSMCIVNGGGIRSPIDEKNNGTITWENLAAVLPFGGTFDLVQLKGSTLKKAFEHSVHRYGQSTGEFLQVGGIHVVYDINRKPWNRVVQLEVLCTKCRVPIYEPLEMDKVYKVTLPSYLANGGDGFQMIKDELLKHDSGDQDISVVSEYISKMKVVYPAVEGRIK", "experiment": "SPR Biacore 8K, antibody captured on Protein A/G"}}, "data": [{"binder": "B1", "values": [{"measurement": "EC50", "setting": "human CD73-His protein", "result": 0.069, "unit": "nM"}, {"measurement": "IC50, inhibition of CD73 enzyme activity on A375 cells", "setting": "[1]", "result": 1.48, "unit": "nM"}, {"measurement": "IC50, inhibition of CD73 enzyme activity on H292 cells", "setting": "[1]", "result": 0.859, "unit": "nM"}, {"measurement": "IC50, inhibition of CD73 enzyme activity on MDA-MB-231 cells", "setting": "[1]", "result": 0.566, "unit": "nM"}, {"measurement": "binding result", "setting": "mouse CD73 protein", "result": "no binding"}]}, {"binder": "B2", "values": [{"measurement": "EC50", "setting": "human CD73-His protein", "result": 0.079, "unit": "nM"}, {"measurement": "IC50, inhibition of CD73 enzyme activity on A375 cells", "setting": "[1]", "result": 1.34, "unit": "nM"}, {"measurement": "IC50, inhibition of CD73 enzyme activity on H292 cells", "setting": "[1]", "result": 0.818, "unit": "nM"}, {"measurement": "IC50, inhibition of CD73 enzyme activity on MDA-MB-231 cells", "setting": "[1]", "result": 0.61, "unit": "nM"}, {"measurement": "binding result", "setting": "mouse CD73 protein", "result": "no binding"}]}]}
